T1: Full length human midkine protein (human) (UniProt P21741)
T1 sequence: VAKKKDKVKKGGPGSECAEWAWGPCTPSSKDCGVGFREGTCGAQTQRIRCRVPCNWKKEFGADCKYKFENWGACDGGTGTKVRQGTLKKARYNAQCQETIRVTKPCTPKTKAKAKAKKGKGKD


Biological target: T1, Full length human midkine protein (human)
Assay: cell-based or functional assay

Total Area (area under the curve of wound width, Cell Migration Assay)	Binder
1710	Δ14 MDK (truncated human midkine lacking 14 amino acids from the C-terminus) (ligand) VAKKKDKVKKGGPGSECAEWAWGPCTPSSKDCGVGFREGTCGAQTQRIRCRVPCNWKKEFGADCKYKFENWGACDGGTGTKVRQGTLKKARYNAQCQETIRVTKPCTPK
1990	Δ58 MDK (truncated human midkine lacking 58 amino acids from the C-terminus) (ligand) VAKKKDKVKKGGPGSECAEWAWGPCTPSSKDCGVGFREGTCGAQTQRIRCRVPCNWKKEFGADCK
1040	Δ25 MDK (truncated human midkine lacking 25 amino acids from the C-terminus) (ligand) VAKKKDKVKKGGPGSECAEWAWGPCTPSSKDCGVGFREGTCGAQTQRIRCRVPCNWKKEFGADCKYKFENWGACDGGTGTKVRQGTLKKARYNAQCQE
768	Δ34 MDK (truncated human midkine lacking 34 amino acids from the C-terminus) (ligand) VAKKKDKVKKGGPGSECAEWAWGPCTPSSKDCGVGFREGTCGAQTQRIRCRVPCNWKKEFGADCKYKFENWGACDGGTGTKVRQGTLKK
924	Δ41 MDK (truncated human midkine lacking 41 amino acids from the C-terminus) (ligand) VAKKKDKVKKGGPGSECAEWAWGPCTPSSKDCGVGFREGTCGAQTQRIRCRVPCNWKKEFGADCKYKFENWGACDGGTGTKV
